Data as given in patent publication US20140005125A1 (Molecular Partners, published 2014).

Key:
[1] = molecular target: T1, Recombinant human PDGF-BB (human, UniProt P01127 82-190); assay: receptor competition ELISA: DARPin preincubated with PDGF-BB, free PDGF-BB captured on coated PDGFRbeta/Fc; mean IC50
T1 construct: For SPR it was chemically biotinylated on primary amines and captured on neutravidin; also called PDGF-BB (human); Reliatech 200-055
Description: The potency of PEGylated anti-PDGF-BB DARPins to inhibit the binding of human PDGF-BB to its receptor PDGFRbeta was determined in a in a receptor competition ELISA (based on PDGF-BB Quantikine, R&D Systems). PDGFRbeta/Fc chimera has been precoated on a microplate. The DARPins were preincubated in assay diluent from the PDGF-BB Quantikine kit (R&D Systems) with a defined amount of PDGF-BB and incubated at room temperature for 2 hours with shaking at 750 rpm. These preincubation mixtures were then transferred into the precoated wells and any PDGF-BB that is not blocked by the DARPins was bound by the immobilized receptor. After washing away any unbound substances, a horse radish peroxidase-linked polyclonal antibody specific for PDGF-BB was added to the wells. Following a wash to remove any unbound antibody-enzyme reagent, a substrate solution was added to the wells and color was developing in proportion to the amount of PDGF-BB bound. The color development was stopped and the intensity of the color was measured at […]. Example titration curves are given for a set of DARPins in FIG. 2. IC₅₀ values were calculated from such titration curves obtained as described above using Graph Pad Prism software and standard procedures known to the person skilled in the art.

[2] = molecular target: T1, Recombinant human PDGF-BB; assay: SPR (ProteOn), biotinylated PDGF-BB on neutravidin chip, DARPin injected; Kd from on- and off-rates
Description: (§1) Biotinylated PDGF-BB molecules from human and mouse were immobilized in a flow cell through binding to coated […] and the interaction with various selected DARPins was analyzed.
(§2) SPR was measured using a ProteOn instrument (BioRad) and measurement was performed according standard procedures known to the person skilled in the art. The running buffer was PBS, pH 7.4, containing 0.005% Tween 20®. Neutravidin was covalently immobilized on a GLC chip (BioRad) to a level of about 8000 resonance units (RU). Immobilization of PDGF-BB on the neutravidin coated chip was then performed. The interaction of DARPin PDGF-BB was then measured by injecting 100 μl running buffer (PBS containing 0.005% Tween®) containing serial dilutions of DARPins of concentration of […] (on-rate measurement), followed by a running buffer flow for between 10 minutes and up to 3 hours at a constant flow rate of 30 μl/min (off-rate measurement). The signals (i.e. resonance unit (RU) values) of an uncoated reference cell and a reference injection (i.e. injection of running buffer only) were subtracted from the RU traces obtained after injection of […] (double-referencing). From the SRP traces obtained from the on-rate and off-rate measurements the on- and off-rate of the corresponding DARPin PDGF-BB interaction can be determined.
(§3) Dissociation constants (Kd) were calculated from the estimated on- and off-rates using standard procedures known to the person skilled in the art.

[3] = molecular target: T2, Recombinant murine PDGF-BB (mouse, UniProt P31240 82-190, limits assumed); assay: as above
T2 construct: For SPR chemically biotinylated on primary amines and captured on neutravidin; also called mouse PDGF-BB; PDGF-BB (mouse)
Description: as §1, §2, §3

T2 sequence (P31240 82-190 limits assumed): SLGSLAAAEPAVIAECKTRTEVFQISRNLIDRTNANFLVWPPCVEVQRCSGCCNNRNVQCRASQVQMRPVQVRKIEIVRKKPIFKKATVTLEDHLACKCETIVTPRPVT
T1 sequence (P01127 82-190 limits assumed): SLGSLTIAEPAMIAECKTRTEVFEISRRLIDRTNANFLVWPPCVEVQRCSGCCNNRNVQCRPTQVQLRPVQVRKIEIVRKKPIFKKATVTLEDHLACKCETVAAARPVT

Row | Binder | IC50 [1] [nM] | Kd [2] [nM] | Kd [3] [nM]
1 | DARPin #52 (designed binder) MRGSHHHHHHGSDLGKKLLEAARAGQDDEVRILMANGADVNAQDLNGQTPLHLAADIGHLEIVEVLLKHGADVNAQDYAGSTPLRLAAWAGHLEIVEVLLKNGADVNANDYFGYTPLHLAAYFGHLEIVDVLLKHGADVNAQDKFGKTPADIAADNGHEDIAEVLQKLN | 0.068 |  | 
2 | DARPin #51 (designed binder) MRGSHHHHHHGSDLGKKLLEAARAGQDDEVRILMANGADVNAKDLNGQTPLHLAADIGHLEIVEVLLKAGADVNAKDYAGSTPLRLAAWAGHLEIVEVLLKAGADVNAKDYFGYTPLHLAAYFGHLEIVEVLLKAGADVNAQDKFGKTAFDISIDNGNEDLAEILQKLN | 0.008 | 0.121 | 
3 | DARPin #56 (designed binder) MRGSHHHHHHGSDLDKKLLEAARAGQDDEVRILLKAGADVNAKDLNGQTPLHLAADIGHLEIVEVLLKAGADVNAKDYAGSTPLRLAAWAGHLEIVEVLLKAGADVNAKDYFGYTPLHLAAYFGHLEIVEVLLKAGADVNAQDKFGKTPADIAADNGHEDIAEVLQKLN | 0.17 | 0.15 | 
4 | DARPin #53 (designed binder) MRGSHHHHHHGSDLDKKLLEAARAGQDDEVRILMANGADVNAKDLNGQTPLHLAADIGHLEIVEVLLKAGADVNAKDYAGSTPLRLAAWAGHLEIVEVLLKAGADVNAKDYFGYTPLHLAAYFGHLEIVEVLLKAGADVNAQDKFGKTPADIAADNGHEDIAEVLQKLN | 0.036 | 0.128 | 
5 | DARPin #54 (designed binder) MRGSHHHHHHGSDLGKKLLEAARAGQDDEVRILMANGADVNAKDLNGQTPLHLAADIGHLEIVEVLLKAGADVNAKDYAGSTPLRLAAWAGHLEIVEVLLKAGADVNAKDYFGYTPLHLAAYFGHLEIVEVLLKAGADVNAQDKSGKTPADLAADAGHEDIAEVLQKLN | 0.21 | 0.245 | 
6 | DARPin #55 (designed binder) MRGSHHHHHHGSDLGKKLLEAARAGQDDEVRILLKAGADVNAKDLNGQTPLHLAADIGHLEIVEVLLKAGADVNAKDYAGSTPLRLAAWAGHLEIVEVLLKAGADVNAKDYFGYTPLHLAAYFGHLEIVEVLLKAGADVNAQDKFGKTAFDISIDNGNEDLAEILQKLN | 0.014 | 0.0555 | 
7 | DARPin #57 (designed binder) MRGSHHHHHHGSDLGKKLLEAARAGQDDEVRILLKAGADVNAKDLNGQTPLHLAADIGHLEIVEVLLKAGADVNAKDYAGSTPLRLAAWAGHLEIVEVLLKAGADVNAKDYFGYTPLHLAAYFGHLEIVEVLLKAGADVNAQDKSGKTPADLAADAGHEDIAEVLQKLN | 0.204 | 0.123 | 
8 | DARPin #58 (designed binder) MRGSHHHHHHGSDLGKKLLEAARAGQDDEVRELLKAGADVNAKDLNGQTPLHLAADIGHLEIVEVLLKAGADVNAKDYAGSTPLRLAAWAGHLEIVEVLLKAGADVNAKDYFGYTPLHLAAYFGHLEIVEVLLKAGADVNAQDKSGKTPADLAADAGHEDIAEVLQKLN | 0.47 | 0.257 | 
9 | DARPin #47 (designed binder) MRGSHHHHHHGSDLGKKLLEAARAGQDDEVRILLKAGADVNAKDKSGHTPLHLAAYSGHLEIVEVLLKAGADVNAKDQEGTTPLHFAASVGHLEIVEVLLKAGADVNAQDHYGATPADLAALIGHEDIAEVLQKLN | 0.14 | 0.0937 | 
10 | DARPin #45 (designed binder) MRGSHHHHHHGSDLGKKLLEAARAGQDDEVRELLKAGADVNAKDKSGHTPLHLAAYSGHLEIVEVLLKAGADVNAKDQEGTTPLHFAASVGHLEIVEVLLKAGADVNAQDHYGATPADLAALIGHEDIAEVLQKLN | 0.16 | 0.108 | 
11 | DARPin #46 (designed binder) MRGSHHHHHHGSDLGKKLLEAARAGQDDEVRILMANGADVNAKDKSGHTPLHLAAYSGHLEIVEVLLKAGADVNAKDQEGTTPLHFAASVGHLEIVEVLLKAGADVNAQDHYGATPADLAALIGHEDIAEVLQKLN | 0.15 | 0.112 | 
12 | DARPin #29 (designed binder) MRGSHHHHHHGSDLGKKLLEAARAGQDDEVRILLKAGADVNAKDEEGTTPLHYAAVWGHLEIVEVLLKAGADVNAQDIYGATPADLAALVGHEDIAEVLQKLN | 0.015 | 0.105 | 
13 | DARPin #36 (designed binder) MRGSHHHHHHGSDLGSKLLTAALDGQDDEVRILLAAGADVNAKDEEGTTPLHYAAVVGHLEIVEVLLKAGADVNAQDIWGATPADLAALVGHEDIAEVLQKLN |  | 0.0242 | 0.053
14 | DARPin #31 (designed binder) MRGSHHHHHHGSDLGKKLLEAARAGQDDEVRELLKAGADVNAKDEEGTTPLHYAAVFGHLEIVEVLLKAGADVNAQDIYGATPADLAALVGHEDIAEVLQKLN | 0.48 | 0.109 | 
15 | DARPin #26 (designed binder) MRGSHHHHHHGSDLGKKLLEAARAGQDDEVRILLAAGADVNAKDEEGTTPLHYAAVWGHLEIVEVLLKAGADVNAQDIYGATPADLAALVGHEDIAEILQKLN |  | 0.0177 | 0.0174
16 | DARPin #40 (designed binder) MRGSHHHHHHGSDLGYKLLSAAQYGQDDEVRILLAAGADVNAKDYSGTTPLHYAATWGHLEIVEVLLKAGADVNAQDIYGATPADLAALIGHEDIAEVLQKLN |  | 0.0344 | 0.0608
17 | DARPin #32 (designed binder) MRGSHHHHHHGSDLGHKLLQAAKHGQDDEVRILLAAGADVNAKDDEGTTPLHYAAVWGHLEIVEVLLKAGADVNAQDAYGATPADLAAFLGHEDIAEVLQKLN |  | 0.0638 | 0.0834
18 | DARPin #33 (designed binder) MRGSHHHHHHGSDLGHKLLQAAEQGQDDEVRILLAAGADVNAKDEYGTTPLHFAAVWGHLEIVEVLLKAGADVNAQDVFGATPADLAAYVGHEDIAEVLQKLN |  | 0.0806 | 0.0904
19 | DARPin #37 (designed binder) MRGSHHHHHHGSDLGWKLLEAARTGQDDEVRILLAAGADVNAKDITGTTPLHYAAAWGHMEIVEVLLKTGADVNAQDLYGATPADLAALLGHEDIAEVLQKLN | > 0.4 | 0.152 | 0.0828
20 | DARPin #25 (designed binder) MRGSHHHHHHGSDLGKKLLEAARAGQDDEVRILMANGADVNAKDEEGTTPLHYAAVWGHLEIVEVLLKAGADVNAQDIYGATPADLAALVGHEDIAEILQKLN |  | 0.0147 | 0.0128
21 | DARPin #42 (designed binder) MRGSHHHHHHGSDLGYKLLFAAYVGQDDEVRILLAAGADVNAKDRHGRTPLHLAAWEGHLEIVEVLLKAGADVNAKDDEGTTPLHLLAAWEGHLEIVEVLLKAGADVNAQDVYGATPADLAAYIGHEDIAEVLQKLN |  | 0.0805 | 0.0974
22 | DARPin #35 (designed binder) MRGSHHHHHHGSDLGQKLLYAAEHGQDDEVRILLAAGADVNAKDQTGSTPLHYAAVWGHMEIVEVLLKAGADVNAQDLWGATPADLAAFLGHEDIAVVLQKLN |  | 0.0956 | 0.0981
23 | DARPin #43 (designed binder) MRGSHHHHHHGSDLGLKLLEAAQRGQDDEVRILLAAGADVNAKDREGWTPLHVAAYEGHLEIVEVLLKAGADVNAKDYTGLTPLHVAAVWGHLEIVEVLLKAGADVNAQDIYGATPADLAAYIGHEDIAEVLQKLN |  | 1290 | 1510
